Experimental data taken from the supplement of paper PMC10567573.

B1: S100A14 (parent)
chain: KIANLGSCNDSKLEFRSFWELIGE
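Note: lentivirally expressed fusions sorted by FACS into six bins by GFP to DsRed ratio, PSI derived from sequencing read proportions per bin multiplied by bin number.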

Variants of: B1
Experiment: protein stability index of a GFP-peptide fusion (GPS, HEK-293T) (PSI 1-6); higher = more stable
Details: c terminus: a fixed tail appended
For KIANLQSCNDSKLEFRSFWELIGE [G6Q], the protein stability index was 1.95.
KIANLSSCNDSKLEFRSFWELIGE [G6S] showed a protein stability index of 2.1.
KIANLPSCNDSKLEFRSFWELIGE [G6P] showed a protein stability index of 1.67.
With KIANLNSCNDSKLEFRSFWELIGE [G6N] the protein stability index was 2.94.
In the case of KIANLISCNDSKLEFRSFWELIGE [G6I], the protein stability index is reported as 1.75.
Variant KIANLGSCNDSKLERRSFWELIGE [F15R] has a protein stability index of 2.7.
Work on KIANLGSCNDSKLELRSFWELIGE [F15L] yielded a protein stability index of 1.06.
Work on KIANLGSCNDSKLEHRSFWELIGE [F15H] yielded a protein stability index of 2.14.
With KIANLGSCNDSKLEVRSFWELIGE [F15V] the protein stability index was 2.56.
Work on KIANLGSCNDSKLEGRSFWELIGE [F15G] yielded a protein stability index of 1.92.
KIANLGSCNDSKLEDRSFWELIGE [F15D] showed a protein stability index of 2.51.
KIANLGSCNDSKLENRSFWELIGE [F15N] gave a protein stability index of 2.22.
Variant KIANLGSCNDSKLEYRSFWELIGE [F15Y] has a protein stability index of 1.63.
For KIANNGSCNDSKLEFRSFWELIGE [L5N], the protein stability index was 2.44.
For KIANDGSCNDSKLEFRSFWELIGE [L5D], the protein stability index was 2.67.
For KIANCGSCNDSKLEFRSFWELIGE [L5C], the protein stability index was 2.27.
KIANVGSCNDSKLEFRSFWELIGE [L5V] showed a protein stability index of 2.09.
Work on KIANSGSCNDSKLEFRSFWELIGE [L5S] yielded a protein stability index of 2.29.
Work on KIANTGSCNDSKLEFRSFWELIGE [L5T] yielded a protein stability index of 1.62.
In the case of KIANYGSCNDSKLEFRSFWELIGE [L5Y], the protein stability index is reported as 1.53.
Work on KIANLGSCNDSKLEFRSAWELIGE [F18A] yielded a protein stability index of 2.2.
Variant KIANLGSCNDSKLEFRSKWELIGE [F18K] has a protein stability index of 2.07.
KIANLGSCNDSKLEFRSLWELIGE [F18L] showed a protein stability index of 2.57.
KIANLGSCNDSKLEFRSDWELIGE [F18D] showed a protein stability index of 3.52.
Variant KIANLGSCNDSKLEFRSTWELIGE [F18T] has a protein stability index of 1.89.
For KIANLGSCNDSKLEFRSSWELIGE [F18S], the protein stability index was 2.08.
Work on KIANLGSCNDSKLEFRSNWELIGE [F18N] yielded a protein stability index of 2.73.
For KIANLGSCNDSKLEFNSFWELIGE [R16N], the protein stability index was 2.13.
For KIANLGSCNDSKLEFDSFWELIGE [R16D], the protein stability index was 2.11.
KIANLGSCNDSKLEFFSFWELIGE [R16F] gave a protein stability index of 1.42.
KIANLGSCNDSKLEFQSFWELIGE [R16Q] showed a protein stability index of 1.98.
For KIANLGSCNDSKLEFCSFWELIGE [R16C], the protein stability index was 1.66.
Work on KIANLGSCNDSKLEFASFWELIGE [R16A] yielded a protein stability index of 1.28.
For KIANLGSCNDSKLEFGSFWELIGE [R16G], the protein stability index was 1.54.
KIANLGSCNDSKLEFSSFWELIGE [R16S] gave a protein stability index of 2.65.
KIANLGSCNDSKLEFISFWELIGE [R16I] gave a protein stability index of 1.97.
With KIQNLGSCNDSKLEFRSFWELIGE [A3Q] the protein stability index was 1.98.
Variant KIINLGSCNDSKLEFRSFWELIGE [A3I] has a protein stability index of 1.74.
KIYNLGSCNDSKLEFRSFWELIGE [A3Y] gave a protein stability index of 1.79.
In the case of KIHNLGSCNDSKLEFRSFWELIGE [A3H], the protein stability index is reported as 2.38.
With KIMNLGSCNDSKLEFRSFWELIGE [A3M] the protein stability index was 2.69.
Variant KIDNLGSCNDSKLEFRSFWELIGE [A3D] has a protein stability index of 1.97.
KIVNLGSCNDSKLEFRSFWELIGE [A3V] showed a protein stability index of 2.78.
With KIANLGSCNDSKYEFRSFWELIGE [L13Y] the protein stability index was 2.12.
Variant KIANLGSCNDSKSEFRSFWELIGE [L13S] has a protein stability index of 2.52.
KIANLGSCNDSKEEFRSFWELIGE [L13E] showed a protein stability index of 1.71.
In the case of KIANLGSCNDSKMEFRSFWELIGE [L13M], the protein stability index is reported as 2.03.
Variant KIANLGSCNDSKWEFRSFWELIGE [L13W] has a protein stability index of 2.31.
In the case of KIANLGSCNDSKFEFRSFWELIGE [L13F], the protein stability index is reported as 2.21.
Work on KIANLGSCNDSKTEFRSFWELIGE [L13T] yielded a protein stability index of 2.24.
With KIANLGSCNDYKLEFRSFWELIGE [S11Y] the protein stability index was 1.59.
KIANLGSCNDDKLEFRSFWELIGE [S11D] showed a protein stability index of 1.89.
For KIANLGSCNDMKLEFRSFWELIGE [S11M], the protein stability index was 1.4.
KIANLGSCNDWKLEFRSFWELIGE [S11W] gave a protein stability index of 1.18.
In the case of KIANLGSCNDLKLEFRSFWELIGE [S11L], the protein stability index is reported as 1.52.
With KIANLGSCNDVKLEFRSFWELIGE [S11V] the protein stability index was 2.42.
In the case of KIANLGSCNDRKLEFRSFWELIGE [S11R], the protein stability index is reported as 2.
KIANLGSCNDTKLEFRSFWELIGE [S11T] gave a protein stability index of 1.56.
Work on KIANLGSCNDGKLEFRSFWELIGE [S11G] yielded a protein stability index of 1.53.
KIANLGSCNDAKLEFRSFWELIGE [S11A] gave a protein stability index of 2.38.
For KIANLGSCNDFKLEFRSFWELIGE [S11F], the protein stability index was 2.39.
KIANLGSCNDSNLEFRSFWELIGE [K12N] showed a protein stability index of 2.29.
Work on KIANLGSCNDSDLEFRSFWELIGE [K12D] yielded a protein stability index of 2.24.
In the case of KIANLGSCNDSGLEFRSFWELIGE [K12G], the protein stability index is reported as 1.59.
In the case of KIANLGSCNDSILEFRSFWELIGE [K12I], the protein stability index is reported as 1.8.
In the case of KIANLGSCNDSFLEFRSFWELIGE [K12F], the protein stability index is reported as 2.76.
For KIANLGSCNDSQLEFRSFWELIGE [K12Q], the protein stability index was 1.26.
KIANLGSCNDSVLEFRSFWELIGE [K12V] gave a protein stability index of 2.47.
Work on KIANLGSCNDSALEFRSFWELIGE [K12A] yielded a protein stability index of 2.02.
KIANLGSCNDSPLEFRSFWELIGE [K12P] showed a protein stability index of 1.95.
KIANLGSCNDSKLEFRSFWCLIGE [E20C] showed a protein stability index of 2.79.
In the case of KIANLGSCNDSKLEFRSFWSLIGE [E20S], the protein stability index is reported as 1.94.
In the case of KIANLGSCNDSKLEFRSFWFLIGE [E20F], the protein stability index is reported as 2.77.
Variant KIANLGSCNDSKLEFRSFWPLIGE [E20P] has a protein stability index of 1.64.
Work on KIANLGSCNDSKLEFRSFWALIGE [E20A] yielded a protein stability index of 1.64.
KIANLGSCNDSKLEFRSFWRLIGE [E20R] showed a protein stability index of 2.45.
KIANLGSHNDSKLEFRSFWELIGE [C8H] gave a protein stability index of 1.22.
Work on KIANLGSPNDSKLEFRSFWELIGE [C8P] yielded a protein stability index of 1.79.
Variant KIANLGSDNDSKLEFRSFWELIGE [C8D] has a protein stability index of 2.63.
With KIANLGSQNDSKLEFRSFWELIGE [C8Q] the protein stability index was 1.68.
In the case of KIANLGSVNDSKLEFRSFWELIGE [C8V], the protein stability index is reported as 2.08.
For KIANLGSINDSKLEFRSFWELIGE [C8I], the protein stability index was 3.2.
Variant KIANLGSGNDSKLEFRSFWELIGE [C8G] has a protein stability index of 2.24.
Variant KIANLGSANDSKLEFRSFWELIGE [C8A] has a protein stability index of 1.77.
With KIANLGSSNDSKLEFRSFWELIGE [C8S] the protein stability index was 1.99.
With KIANLGSCKDSKLEFRSFWELIGE [N9K] the protein stability index was 2.23.
Work on KIANLGSCYDSKLEFRSFWELIGE [N9Y] yielded a protein stability index of 1.91.
KIANLGSCFDSKLEFRSFWELIGE [N9F] showed a protein stability index of 1.86.
For KIANLGSCDDSKLEFRSFWELIGE [N9D], the protein stability index was 1.59.
With KIANLGSCRDSKLEFRSFWELIGE [N9R] the protein stability index was 1.47.
Work on KIANLGSCTDSKLEFRSFWELIGE [N9T] yielded a protein stability index of 1.56.
KIANLGSCCDSKLEFRSFWELIGE [N9C] gave a protein stability index of 1.75.
For KIANLGSCVDSKLEFRSFWELIGE [N9V], the protein stability index was 2.01.
For KIANLGSCIDSKLEFRSFWELIGE [N9I], the protein stability index was 1.69.
